The subject of this test is gliadorphin (YPQPQPF: SEQ ID NO: 2). The test is described as follows: Analysis of gliadorphin degradation product by LC-MS. The test is classed as biochemical.

B1: papain (protein, UniProt P00784 134-345, looked up)
Papain: IPEYVDWRQKGAVTPVKNQGSCGSCWAFSAVVTIEGIIKIRTGNLNEYSEQELLDCDRRSYGCNGGYPWSALQLVAQYGIHYRNTYPYEGVQRYCRSREKGPYAAKTDGVRQVQPYNEGALLYSIANQPVSVVLEAAGKDFQLYRGGIFVGPCGNKVDHAVAAVGYGPNYILIKNSWGTGWGENGYIRIKRGTGNSYGVCGLYTSSFYPVKN
notes: protease, commercial (Asahi Food & Healthcare Co., Ltd.)
For the molecule B1, the “detection of undegraded 7-mer of gliadorphin” value (LC-MS of degradation product) is reported as “undegraded 7-mer was detected”. The “direct degradability for exomorphine peptide” value (papain alone, as shown in the examples) is recorded as “did not exhibit direct degradability”.

The record behind these values is patent US20140219982A1, “EXOGENOUS OPIOID PEPTIDE-DEGRADING ENZYME” (priority 2011, published 2014).
